Assay results taken from patent US20110263454A1, “Methods of Identifying Functional Characteristics of Promoters, Transcription Modifying Proteins and Transcription Modulating Agents” (Salk Institute for Biological Studies, priority 2008, published 2011).

B1: DAX-1: DAX1 (NR0B1), cDNA driver (protein, UniProt P51843 1-470, looked up)
Nuclear receptor subfamily 0 …: MAGENHQWQGSILYNMLMSAKQTRAAPEAPETRLVDQCWGCSCGDEPGVGREGLLGGRNVALLYRCCFCGKDHPRQGSILYSMLTSAKQTYAAPKAPEATLGPCWGCSCGSDPGVGRAGLPGGRPVALLYRCCFCGEDHPRQGSILYSLLTSSKQTHVAPAAPEARPGGAWWDRSYFAQRPGGKEALPGGRATALLYRCCFCGEDHPQQGSTLYCVPTSTNQAQAAPEERPRAPWWDTSSGALRPVALKSPQVVCEAASAGLLKTLRFVKYLPCFQVLPLDQQLVLVRNCWASLLMLELAQDRLQFETVEVSEPSMLQKILTTRRRETGGNEPLPVPTLQHHLAPPAEARKVPSASQVQAIKCFLSKCWSLNISTKEYAYLKGTVLFNPDVPGLQCVKYIQGLQWGTQQILSEHTRMTHQGPHDRFIELNSTLFLLRFINANVIAELFFRPIIGTVSMDDMMLEMLCTKI
B2: NR4a3: NR4a3 (NR4A3; NOR1), nuclear hormone receptor cDNA driver (protein, UniProt Q92570 1-626, looked up)
Nuclear receptor subfamily 4 …: MPCVQAQYSPSPPGSSYAAQTYSSEYTTEIMNPDYTKLTMDLGSTEITATATTSLPSISTFVEGYSSNYELKPSCVYQMQRPLIKVEEGRAPSYHHHHHHHHHHHHHHQQQHQQPSIPPASSPEDEVLPSTSMYFKQSPPSTPTTPAFPPQAGALWDEALPSAPGCIAPGPLLDPPMKAVPTVAGARFPLFHFKPSPPHPPAPSPAGGHHLGYDPTAAAALSLPLGAAAAAGSQAAALESHPYGLPLAKRAAPLAFPPLGLTPSPTASSLLGESPSLPSPPSRSSSSGEGTCAVCGDNAACQHYGVRTCEGCKGFFKRTVQKNAKYVCLANKNCPVDKRRRNRCQYCRFQKCLSVGMVKEVVRTDSLKGRRGRLPSKPKSPLQQEPSQPSPPSPPICMMNALVRALTDSTPRDLDYSRYCPTDQAAAGTDAEHVQQFYNLLTASIDVSRSWAEKIPGFTDLPKEDQTLLIESAFLELFVLRLSIRSNTAEDKFVFCNGLVLHRLQCLRGFGEWLDSIKDFSLNLQSLNLDIQALACLSALSMITERHGLKEPKRVEELCNKITSSLKDHQSKGQALEPTESKVLGALVELRKICTLGLQRIFYLKLEDLVSPPSIIDKLFLDTLPF
B3: NR4a2: NR4a2 (NR4A2; NURR1), nuclear hormone receptor cDNA driver (protein, UniProt P43354 1-598, looked up)
Nuclear receptor subfamily 4 …: MPCVQAQYGSSPQGASPASQSYSYHSSGEYSSDFLTPEFVKFSMDLTNTEITATTSLPSFSTFMDNYSTGYDVKPPCLYQMPLSGQQSSIKVEDIQMHNYQQHSHLPPQSEEMMPHSGSVYYKPSSPPTPTTPGFQVQHSPMWDDPGSLHNFHQNYVATTHMIEQRKTPVSRLSLFSFKQSPPGTPVSSCQMRFDGPLHVPMNPEPAGSHHVVDGQTFAVPNPIRKPASMGFPGLQIGHASQLLDTQVPSPPSRGSPSNEGLCAVCGDNAACQHYGVRTCEGCKGFFKRTVQKNAKYVCLANKNCPVDKRRRNRCQYCRFQKCLAVGMVKEVVRTDSLKGRRGRLPSKPKSPQEPSPPSPPVSLISALVRAHVDSNPAMTSLDYSRFQANPDYQMSGDDTQHIQQFYDLLTGSMEIIRGWAEKIPGFADLPKADQDLLFESAFLELFVLRLAYRSNPVEGKLIFCNGVVLHRLQCVRGFGEWIDSIVEFSSNLQNMNIDISAFSCIAALAMVTERHGLKEPKRVEELQNKIVNCLKDHVTFNNGGLNRPNYLSKLLGKLPELRTLCTQGLQRIFYLKLEDLVPPPAIIDKLFLDTLPF
B4: GCNF: Germ Cell Nuclear Factor (NR6A1, GCNF1), cDNA driver (protein, UniProt Q15406 1-480, looked up)
Nuclear receptor subfamily 6 …: MERDEPPPSGGGGGGGSAGFLEPPAALPPPPRNGFCQDELAELDPGTISVSDDRAEQRTCLICGDRATGLHYGIISCEGCKGFFKRSICNKRVYRCSRDKNCVMSRKQRNRCQYCRLLKCLQMGMNRKAIREDGMPGGRNKSIGPVQISEEEIERIMSGQEFEEEANHWSNHGDSDHSSPGNRASESNQPSPGSTLSSSRSVELNGFMAFREQYMGMSVPPHYQYIPHLFSYSGHSPLLPQQARSLDPQSYSLIHQLLSAEDLEPLGTPMLIEDGYAVTQAELFALLCRLADELLFRQIAWIKKLPFFCELSIKDYTCLLSSTWQELILLSSLTVYSKQIFGELADVTAKYSPSDEELHRFSDEGMEVIERLIYLYHKFHQLKVSNEEYACMKAINFLNQDIRGLTSASQLEQLNKRYWYICQDFTEYKYTHQPNRFPDLMMCLPEIRYIAGKMVNVPLEQLPLLFKVVLHSCKTSVGKE

Legend:
[1] = system: hMDR1 promoter; assay: NHR-promoter luciferase screen, hMDR1 promoter; format: cell-based, human; details: for Luc. act., normalized to lacZ / Normalized Luc. act., normalized to control: MDR1 promoter, HR/ligand component; for hMDR1 promoter reporter activity: transcription factor +/- ligand, control = 1.00
How it was run: (§1)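 CV-1 cells were co-transfected with 50 ng NHR (homodimer or NHR/RXR heterodimer), 100 ng promoter-luciferase construct and 50 ng LacZ. Luciferase was normalized to LacZ and to a no-NHR/no-ligand control.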

[2] = system: hPOMC promoter; assay: NHR-promoter luciferase screen, hPOMC promoter; format: cell-based, human; details: for Luc. act., normalized to lacZ / Normalized Luc. act., normalized to control: hPOMC promoter, HR/ligand component; for hPOMC promoter reporter activity: transcription factor +/- ligand, control = 1.00
How it was run: as §1

[3] = system: mDio1 promoter; assay: NHR-promoter luciferase screen, mDio1 promoter; format: cell-based, mouse; details: for Luc. act., normalized to lacZ / Normalized Luc. act., normalized to control: Dio1, HR component without or with its ligand; for mDio1 promoter reporter activity: transcription factor +/- ligand, control = 1.00
How it was run: as §1

[4] = system: hTNFa promoter; assay: NHR-promoter luciferase screen, hTNFa promoter; format: cell-based, human; details: for Luc. act., normalized to lacZ / Normalized Luc. act., normalized to control: TNFa promoter, HR component without or with ligand; for hTNFa promoter reporter activity: transcription factor +/- ligand, control = 1.00
How it was run: as §1

[5] = system: mAgrp promoter; assay: NHR-promoter luciferase screen, mAgrp promoter; format: cell-based, mouse; details: for Results of assays of transcription factor (+/- ligand) with mAgrp: Table 6d, luciferase activity relative to control (control = 1.00); for Luc. act., normalized to lacZ / Normalized Luc. act., normalized to control: mAgrp promoter, HR component with or without ligand; for Normalized Luc. act., normalized to control: relative to control
How it was run: as §1

[6] = system: mADRP promoter; assay: NHR-promoter luciferase screen, mADRP promoter; format: cell-based, mouse; details: for Luc. act., normalized to lacZ / Normalized Luc. act., normalized to control: ADRP promoter, HR/ligand component; for mADRP promoter reporter activity: transcription factor +/- ligand, control = 1.00
How it was run: as §1

| Molecule | Luc. act., normalized to lacZ [1] | Normalized Luc. act., normalized to control [1] | hMDR1 promoter reporter activity [1] | Luc. act., normalized to lacZ [2] | Normalized Luc. act., normalized to control [2] | hPOMC promoter reporter activity [2] | Luc. act., normalized to lacZ [3] | Normalized Luc. act., normalized to control [3] | mDio1 promoter reporter activity [3] | Luc. act., normalized to lacZ [4] | Normalized Luc. act., normalized to control [4] | hTNFa promoter reporter activity [4] | Results of assays of transcription factor (+/- ligand) with mAgrp [5] | Luc. act., normalized to lacZ [5] | Normalized Luc. act., normalized to control [5] | Luc. act., normalized to lacZ [6] | Normalized Luc. act., normalized to control [6] | mADRP promoter reporter activity [6] |
| --- | --- | --- | --- | --- | --- | --- | --- | --- | --- | --- | --- | --- | --- | --- | --- | --- | --- | --- |
| B1 | 0.3 | 0.9 | 0.89 | 2.7 | 0.6 | 0.63 | 8.9 | 2.0 | 2.00 | 854.8 | 0.9 | 0.87 | 1.07 | 42.3 | 1.1 | 419.9 | 0.8 | 0.84 |
| B2 | 0.2 | 0.7 | 0.65 | 2.7 | 0.6 | 0.63 | 6.6 | 1.5 | 1.48 | 691.0 | 0.7 | 0.70 | 0.88 | 34.7 | 0.9 | 351.6 | 0.7 | 0.71 |
| B3 | 0.2 | 0.7 | 0.74 | 2.1 | 0.5 | 0.49 | 6.3 | 1.4 | 1.41 | 735.5 | 0.7 | 0.75 | 0.88 | 35.1 | 0.9 | 382.8 | 0.8 | 0.77 |
| B4 | 0.3 | 0.8 | 0.83 |  | 0.0 | 0.00 | 5.1 | 1.1 | 1.13 | 1203.7 | 1.2 | 1.22 | 1.42 | 56.5 | 1.4 | 523.7 | 1.1 | 1.05 |
